Experimental data published in publication doi:10.1101/2025.11.19.689067 (bioRxiv, 2025).

T1: DENV2 NS1 (recombinant, biotinylated, on Luminex beads) (dengue virus serotype 2, UniProt P29990 776-1127)
T1 sequence: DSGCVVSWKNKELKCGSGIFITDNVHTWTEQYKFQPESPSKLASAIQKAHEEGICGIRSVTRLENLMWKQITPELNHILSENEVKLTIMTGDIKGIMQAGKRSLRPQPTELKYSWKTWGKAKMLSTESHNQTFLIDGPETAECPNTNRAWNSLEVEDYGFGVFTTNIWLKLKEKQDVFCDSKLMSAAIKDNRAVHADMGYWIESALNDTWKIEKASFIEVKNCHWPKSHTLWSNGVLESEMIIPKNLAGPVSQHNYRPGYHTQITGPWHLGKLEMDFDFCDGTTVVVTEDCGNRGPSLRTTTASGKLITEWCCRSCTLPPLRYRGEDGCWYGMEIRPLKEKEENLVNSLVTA


Columns and labels:
Assay in all cases: bead-based binding assay (Luminex)
[1] = biological target: DENV2 NS1 wing-Halotag (residues 30-174) (dengue virus serotype 2)
[2] = biological target: DENV2 NS1 β-ladder-Halotag (residues 178-352) (dengue virus serotype 2)
[3] = biological target: T1, DENV2 NS1 (recombinant, biotinylated, …); details: both partners purified

Row | Molecule | fold relative binding (EFNB1 Fc over Gluc Fc) [1] [fold] | fold relative binding (EFNB1 Fc over Gluc Fc) [2] [fold] | fold binding over the Gluc-Fc negative control [3] [fold]
1 | EFNB1 RBD-Fc fusion protein (from UniProt P98172 28-164) | 50 | 15 | –
2 | EFNB1 RBD-Fc fusion protein (Fc fusion) LAKNLEPVSWSSLNPKFLSGKGLVIYPKIGDKLDIICPRAEAGRPYEYYKLYLVRPEQAAACSTVLDPNVLVTCNRPEQEIRFTIKFQEFSPNYMGLEFKKHHDYYITSTSNGSLEGLENREGGVCRTRTMKIIMKV | – | – | 40
